In patent US20130231465A1 (HEMHOLTZ ZENTRUM MUNCHEN DEUTCHES FORSCHUNGSZENTRUM FUR …, published 2013):

Target: CA-XII as used in the enzyme inhibition assay (Homo sapiens (Human), UniProt O43570 25-301, limits assumed)
Assay: cell-based or functional assay

CA-XII as used in the enzyme inhibition assay, sequence (O43570 25-301 limits assumed): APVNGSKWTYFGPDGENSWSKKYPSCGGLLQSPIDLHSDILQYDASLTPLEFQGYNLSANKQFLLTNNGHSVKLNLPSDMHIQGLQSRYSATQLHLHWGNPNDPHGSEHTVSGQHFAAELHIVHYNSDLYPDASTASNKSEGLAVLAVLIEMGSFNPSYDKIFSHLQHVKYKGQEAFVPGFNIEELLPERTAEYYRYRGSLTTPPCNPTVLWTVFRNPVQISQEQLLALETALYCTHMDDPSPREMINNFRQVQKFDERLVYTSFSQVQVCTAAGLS

B1: EXO 6A10 (antibody, V domains shown)
VH: EVKLEESGPGLVQPSETLSLTCTVSGFSLTTYSVSWVRQPSGKGPEWMGRMWYDGDTVYNSALKSRLSISRDTSKNQVFLKMNSLETDETGTYYCTRDFGYFDGSSPFDYWGQGVMVTVSS
VL: DIVMTQTPATLSVTPGESVSLSCRASQGISTSIHWYQQKSNESPRLLIKFASQSISGIPSRFSGSGSGTDFTLSINRVESEDFSVYFCQQTYSLPYTFGAGTKLELK
**Q.** For B1, which “inhibition of CA-XII (enzyme activity), IC50” value is on record?
**A.** 6.14 nM
